A short description of data set [1]: Singlet Oxygen Sensor Green assay with UV-exposed porphyrins. It counts as biochemical. Particulars: 1 μM Coproporphyrin III or Protoporphyrin IX, 10 min UV lamp, varying amounts of RoxP. Here is the method: The Singlet Oxygen Sensor Green dye was dissolved in Methanol and added in PBS buffer to reach a final concentration of 0.4 μM. This solution was distributed in a clear 96 well plate. To the wells 1 μM Coproporphyrin III, or 1 μM Protoporphyrin IX was added. Then varying amounts of RoxP were added. Each condition was set up as 4 replicas. Two of the replicas were covered by aluminium foil during the exposure, while two wells were exposed for 10 min to a UV lamp. After exposure, the fluorescence of the Singlet Oxygen Sensor Green dye was read out indicating the amount of singlet oxygen generated.

A short description of a further data set: Lyophilisation of RoxP. The note with it: RoxP dissolved in water, absence of further excipients. It counts as physicochemical. An excerpt:
Lyophilisation of proteins is also a well-established procedure in the art and typically employs an aqueous solution of the protein to be lyophilised, optionally admixed with one or more suitable lyophilisation excipients, such as trehalose, sucrose, raffinose, maltodextrin, mannitol, and/or dextran. […] The inventors have additionally observed that mannitol, and particularly 2-6% w/v, preferably 2-5% w/v, more preferably 2-4% w/v, or even more preferably 2-3% w/v mannitol (relative to the volume of the solution to be lyophilised) was especially advantageous for production of stable cake and preservation of RoxP activity.

The next data set can be described thus: Ferrozine assay. It counts as biochemical. Particulars: incubation 17 hours. Here is the method:
The reagents used in the ferrozine assay included 100 μl of 50 mM iron ammonium dodecahydrate, 100 μl 2 mM ferrozine in H2O, and RoxP (50 μl) resulting in various RoxP concentrations indicated in the graph, diluted from a stock solution of 2 mg/ml RoxP in PBS. Incubation was Incubation 17 hours.

The next data set deals with HaCat cells. Kind of data set: MTT viability assay, paraquat oxidative stress, keratinocytes. It counts as cell-based, human. Here is the method: (§1) Human keratinocytes (HaCat cells; disclosed in Boukamp et al. 1988 J Cell Biol 106:761-71 and available from Deutsches Krebsforschungszentrum, DKFZ, info@cell-lines-service.de; and also commercially available for example from Addexbio, San Diego, Calif., catalogue number T0020001) were grown in SFM medium supplemented with L-glutamine, EGF (epidermal growth factor) and bovine pituitary extract (Gibson, Invitrogen) until 90% confluency in 96-well plates (Nunc A/S, Roskilde, Denmark). Human monocytes (THP-1 cells; disclosed in Tsuchiya et al. 1980 Int J Cancer 26:171-6; commercially available for example from Sigma-Aldrich, catalogue number 88081201; kindly provided by Dr Arne Egesten, Lund University) were cultured in RPMI 1640 medium supplemented with Glutamax-1 (Gibco®, ThermoFisher Scientific), 100 μg/ml streptomycin, 100 μg/ml penicillin, and 10% v/v foetal calf serum (ThermoFisher Scientific). All cells were grown at 37° C. in 5% CO2 and 95% humidity.
(§2) HaCat cells cultured to 90% confluency, or THP-1 cells (1.2×10^6 cells/well) in a 96-well plate were treated with 2 mM paraquat (Sigma-Aldrich) and/or 5 μM RoxP for 24-48 h. […] Viability was measured by the addition of 0.5 mg/ml 3-(4,5-demethylthiazol-2-yl)-2,5-diphenyltetrazolium bromide (MTT) for 1-5 hours. […] The samples incubated for 30 minutes and absorbance at 550 nm was measured using a Wallac 1420 Multilabel Counter ([…]). […]
For orientation: Tetrazolium dyes change colour on reduction, which living cells bring about.

The next data set has as its system THP-1 cells. Kind of data set: MTT viability assay, paraquat oxidative stress, monocytes. It counts as cell-based, human. As to the method:
as §1, §2

Data set [2] is described as follows: ABTS radical cation assay. It counts as biochemical. Here is the method:
FIG. 4: RoxP antioxidant activity under adverse conditions. The ability of RoxP to reduce ABTS radical cations, denoted by a decrease in absorbance at 734 nm, was tested in multiple settings. Different concentrations of recombinant RoxP (rRoxP) (0.2-3.2 μM) in sodium phosphate buffer (20 mM, pH 7.4) (A), rRoxP (2.7 μM) incubated with salt solutions (B), pre-heated rRoxP (2.7 μM) incubated for 20 min in temperatures ranging from RT to 98° C. and allowed to cool down to ambient temperature prior to activity measurements (C), or rRoxP (2 μM) stored at room temperature for up to 2 weeks (D) were added to a solution of pre-formed ABTS radicals and the absorbance recorded after 30 sec.
The reduction of pre-formed ABTS radical cations in the presence of RoxP was analysed using a spectrophotometric assay previously described by Re et al. (1999 Free Radic Biol Med 26:1231-1237). 2,2′-azinobis(3-ethylbenzothiazoline-6-sulfonic acid) diammonium salt (ABTS) (Sigma-Aldrich) was initially dissolved in ddH2O to a concentration of […]. Potassium persulfate (Merck KGaA, Darmstadt, Germany) was subsequently added to a final concentration of 2.45 mM and the resulting solution kept dark and incubated overnight at RT. Formed ABTS radicals were diluted with PBS (pH 7.4) until reaching an absorbance of approximately 0.7 at 734 nm. Antioxidants (1.7 μM) were added (1:9 v/v) and the absorbance spectrum 500 to 900 nm recorded after 30 sec.

A short description of a further data set: Phenantroline assay. It counts as biochemical. Particulars: 10 μg or 20 μg RoxP. As to the method:
Phenantroline chelates specifically Fe^2+ and generates absorbance at 550 nm.
A reaction mixture containing 0.7 mM ammonium iron (II) sulfate hexahydrate (from 1.4 mM working solution in PBS) or 0.5 mM ammonium iron (III) sulfate dodecahydrate (from 1.0 mM working solution in PBS); and further containing 10 μg or 20 μg RoxP (from 2 mg/ml RoxP working solution in PBS) or equivalent volume of PBS as control; and further containing 0.75 mM phenatroline (from 5 mM working solution in PBS); total volume 200 μl; was incubated for 15 minutes at room temperature. Absorbance was read at 550 nm.

B1: RoxP: radical oxygenase of Propionibacterium acnes, secreted antioxidant protein of C. acnes; SEQ ID NO: 1 for strain KPA171202 (protein)
chain: MFVQIAASLAAASSIALGIPGAATPIDESQLPVGPQVSVTDSAQHTGPFAASSPLTITVKPGAPCVRADGYQESMVTRVLDDKGHQVWTGTFDESKLIGGTGLGTATFHVGSPAAAFNFHGSERTTYRTLSYCAYPHYVNGTRERLSQVSVKTFMVDPALN
modifications: Cutibacterium acnes
Turning to B1, the “generation of radicals formed through the porphyrins (singlet oxygen)” value in data set [1] is reported as “efficiently inhibited”. Also, the “preservation of RoxP activity after lyophilisation” value in the data set “Lyophilisation of RoxP” is on record as “satisfactorily preserved the activity”. For the same molecule, the “reduction of Fe^3+ to Fe^2+” value in the data set “Ferrozine assay” is “confirmed reduction of Fe^3+ to Fe^2+”. For the same molecule, the “effect on negative oxidative effect of paraquat (cell viability)” value in the data set on HaCat cells (2 mM paraquat, 5 μM RoxP (1:400 RoxP:oxidizer), 24 h, responded less well) is on record as “completely inhibited”; in the data set with THP-1 cells (2 mM paraquat, 5 μM RoxP (1:400 RoxP:oxidizer), 48 h, effect more prominent than in keratinocytes), “completely inhibited”. For the same molecule, the “overall viability in the absence of an added oxidizer” value with HaCat cells (no paraquat) and in the data set with THP-1 cells (no paraquat) was “increase the overall viability” throughout. Besides, in data set [2] (RoxP 2 mg/ml 10 μl, FMN/FDN 1 mM 1 μl or 3 μl, especially FDN), the “reduction of ABTS radical when FMN/FDN was added” value is “increased reduction”. Further, in data set [2] (rRoxP 2 μM stored at room temperature for up to 2 weeks), the “activity after long-term storage at room temperature” value is reported as “able to endure”. For the same molecule, the “antioxidant activity in presence of CaCl2” value in data set [2] (rRoxP 2.7 μM incubated with salt solutions) is reported as “loss of activity”. In data set [2] (rRoxP 2.7 μM pre-heated 20 min, RT to 98° C., cooled before measurement), the “temperature endured without any significant loss of activity” value is “above 70 °C”. Moreover, in data set [2] (rRoxP 2.7 μM, physiological concentrations of NaCl), the “antioxidant activity in presence of NaCl” value is “withstood”. In addition, the “reducing activity on ABTS radical cations” value in data set [2] (rRoxP 0.2-3.2 μM, sodium phosphate buffer 20 mM pH 7.4) was “concentration-dependent reducing activity”. In addition, the “reduction of Fe^3+ to Fe^2+ (absorbance at 550 nm)” value in “Phenantroline assay” (0.5 mM ammonium iron (III) sulfate, 15 minutes) is recorded as “reduced Fe^3+ to Fe^2+”. The “effect on reaction when only Fe^2+ was present” value in “Phenantroline assay” (0.7 mM ammonium iron (II) sulfate) is “did not affect”.

These data come from patent US20220000762A1, “COMPOSITIONS FOR TREATING OXIDATIVE STRESS-ASSOCIATED SKIN DISEASES AND SKIN AGEING AND DIAGNOSIS OF OXIDATIVE STRESS-ASSOCIATED SKIN DISEASES” (priority 2019, published 2022).
